# Results: patent publication US12144864B2, “Tubulysins and protein-tubulysin conjugates” (Regeneron Pharmaceuticals, Inc., priority 2018, dated 2024)
# T1: STEAP2 endogenously expressed on C4-2 cells (human, UniProt Q8NFT2 1-490)
# T1 sequence (looked up): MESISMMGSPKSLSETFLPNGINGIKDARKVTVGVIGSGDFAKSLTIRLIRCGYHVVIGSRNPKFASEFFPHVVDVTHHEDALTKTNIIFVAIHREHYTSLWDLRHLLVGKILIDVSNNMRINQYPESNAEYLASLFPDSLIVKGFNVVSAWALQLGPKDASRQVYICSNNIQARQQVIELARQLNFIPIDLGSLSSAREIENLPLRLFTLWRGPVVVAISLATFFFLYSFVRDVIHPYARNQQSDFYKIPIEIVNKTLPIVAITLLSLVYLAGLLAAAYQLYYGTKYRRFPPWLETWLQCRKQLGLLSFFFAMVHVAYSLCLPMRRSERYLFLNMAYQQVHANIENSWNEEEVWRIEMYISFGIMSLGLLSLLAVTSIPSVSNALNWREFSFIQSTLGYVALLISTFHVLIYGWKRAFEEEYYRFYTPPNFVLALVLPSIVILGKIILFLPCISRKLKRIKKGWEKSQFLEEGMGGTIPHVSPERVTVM
# T2: human full length PRLR (accession #NP_000940.1) expressed on HCT15/PRLR cells (human, UniProt P16471 25-622)
# T2 sequence (looked up): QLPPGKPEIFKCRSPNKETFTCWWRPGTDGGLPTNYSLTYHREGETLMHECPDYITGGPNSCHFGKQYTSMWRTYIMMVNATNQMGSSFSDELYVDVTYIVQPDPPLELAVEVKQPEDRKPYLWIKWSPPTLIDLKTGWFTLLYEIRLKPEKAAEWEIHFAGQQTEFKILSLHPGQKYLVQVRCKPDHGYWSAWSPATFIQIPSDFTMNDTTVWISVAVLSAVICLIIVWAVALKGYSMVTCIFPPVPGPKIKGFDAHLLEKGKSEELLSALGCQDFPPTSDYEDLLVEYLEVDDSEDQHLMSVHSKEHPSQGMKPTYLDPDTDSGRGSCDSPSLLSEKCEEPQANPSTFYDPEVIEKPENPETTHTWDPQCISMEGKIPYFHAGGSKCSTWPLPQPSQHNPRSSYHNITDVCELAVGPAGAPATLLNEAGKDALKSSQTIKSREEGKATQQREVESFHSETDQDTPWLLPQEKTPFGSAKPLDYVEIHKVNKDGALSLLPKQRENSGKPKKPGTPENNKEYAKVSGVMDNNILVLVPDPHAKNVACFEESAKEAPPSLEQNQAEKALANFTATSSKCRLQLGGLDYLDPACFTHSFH
# Tests used:
# [1] = molecular target: T1, STEAP2 endogenously expressed on C4-2 …; experiment: cell-based or functional assay
# [2] = tested on: STEAP2 positive C4-2 prostate cancer xenografts; experiment: In vivo efficacy of anti-STEAP2 ADCs in C4-2 prostate cancer xenografts in SCID mice; parameters: species or system mouse; details: single dose 2.5 mg/kg via tail vein; end of study
# Method: To determine the in vivo efficacy of anti-STEAP2 antibodies conjugated to tubulysins, studies were performed in immunocompromised mice bearing STEAP2 positive C4-2 prostate cancer xenografts.
# For the assay, 7.5×10^6 C4-2 cells (ATCC, Cat #CRL-3314), which endogenously express STEAP2, were suspended in Matrigel (BD Biosciences, Cat #354234) and implanted subcutaneously into the left flank of male CB17 SCID mice (Taconic, Hudson NY). Once tumors had reached an average volume of 220 mm^3 (around Day 15), mice were randomized into groups of 7 and given a single dose of either anti-STEAP2 conjugated antibodies (anti-STEAP2-LP3, anti-STEAP2-LP4, anti-STEAP2-MMAE), isotype control conjugated antibody, or vehicle at 2.5 mg/kg via tail vein injection. Tumors were measured with calipers twice a week until the average size of the vehicle group reached 1500 mm^3. Tumor size was calculated using the formula (length×width^2)/2 and the average tumor size+/−SEM was then calculated. Tumor growth inhibition was calculated according to the following formula: (1−((Tfinal−Tinitial)/(Cfinal−Cinitial)))*100, where treated group (T) and control group (C) represent the mean tumor mass on the day the vehicle group reached 1500 mm^3.
# [3] = molecular target: T2, human full length PRLR (accession …); experiment: cell-based or functional assay
# [4] = tested on: CTG-2440 prostate cancer PDX; experiment: Efficacy of STEAP2-Tubulysin ADC in CTG-2440 PDX prostate cancer model in NOG mice; assay type: in vivo, mouse
# Method: (§1) Prostate cancer Patient-Derived Xenograft (PDX) tumor fragments of either CTG-2440 or CTG-2441 were implanted subcutaneously into the flank of male NOG mice. Once the tumor volumes reached approximately 200 mm^3, mice were randomized into groups of eight and were treated according to the schedule shown in Table 16 below. Tumor growth was monitored for 60 days post-implantation.
# (§2) The prostate cancer models were derived from the bone metastases of patients with metastatic castrate resistant prostate cancer (mCRPC). STEAP2 expression was confirmed by RNA sequencing data and RNA in situ hybridization.
# [5] = tested on: CTG-2441 prostate cancer PDX; experiment: Efficacy of STEAP2-Tubulysin ADC in CTG-2441 PDX prostate cancer model in NOG mice; assay type: in vivo, mouse
# Method: as §1, §2
# [6] = 1.86 mg/kg QW × 1, total payload dose 40 ug/kg
# [7] = 1.86 mg/kg QW × 3, total payload dose 120 ug/kg
# [8] = 3.72 mg/kg QW × 3, total payload dose 240 ug/kg
# [9] = 1.82 mg/kg QW × 1, total payload dose 40 ug/kg
# [10] = 1.82 mg/kg QW × 3, total payload dose 120 ug/kg
# [11] = 3.64 mg/kg QW × 3, total payload dose 240 ug/kg
molecule,measurement,setting,value
"Anti-STEAP2-MMAE (antibody, V domains shown, conjugated to MMAE (payload of LP8, reference linker-payload); site of conjugation and DAR not stated) VH: QVQLVESGGGVVQPGRSLRLSCVASGFTISSYGMNWVRQAPGKGLEWVAVISYDGGNKYSVDSVKGRFTISRDNSKNTLYLQMNSLRAEDSAVYYCARGRYFDLWGRGTLVTVSS VL: DIQMTQSPSTLSASVGDRVTITCRASQSISSWLAWYQQKPGRAPNLLISKASSLKSGVPSRFSGSGSGTEFTLTVSSLQPDDFATYYCQQYYSYSYTFGQGTKLEIK","% kill, C4-2 cells",[1],99%
same,"IC50 (nM), cytotoxicity in C4-2 cells (CellTiter-Glo)",[1],0.53 nM
same,Average Final Tumor size mm^3 (mean ± SEM),[2],475 ± 118 mm^3
same,Average Tumor Growth Inhibition (%),[2],81%
"Anti-PRLR N297Q Ab-LP3 (antibody, V domains shown, N297Q (EU numbering) in the heavy chain constant region; linker-payload LP3 (payload IVd) clicked to azido-PEG3-amine that transglutaminase put on heavy chain glutamines; DAR 3.9 (Table 7)) VH: QVQLVESGGGVVQPGRSLRLSCGASGFTFRNYGMQWVRQGPGKGLEWVTLISFDGNDKYYADSVKGRFTISRDNSKNTLFLQMNSLRTEDTAVYYCARGGDFDYWGQGTLVTVSS VL: DIQMTQSPSSLSASVGDRVTITCRASQDIRKDLGWYQQKPGKAPKRLIYAASSLHSGVPSRFSGSGSGTEFTLTISSLQPEDFATYYCLQHNSYPMYTFGQGTKLEIK",IC50 (nM) on HCT15/PRLR w/ Verapamil (CellTiter-Glo cytotoxicity),[3],0.309 nM
same,IC50 (nM) on HCT15/PRLR w/o Verapamil (CellTiter-Glo cytotoxicity),[3],0.525 nM
"Anti-PRLR N297Q Ab-LP4 (antibody, V domains shown, N297Q (EU numbering) in the heavy chain constant region; linker-payload LP4 (payload Ve) clicked to azido-PEG3-amine that transglutaminase put on heavy chain glutamines; DAR 3.9 (Table 7)) VH: QVQLVESGGGVVQPGRSLRLSCGASGFTFRNYGMQWVRQGPGKGLEWVTLISFDGNDKYYADSVKGRFTISRDNSKNTLFLQMNSLRTEDTAVYYCARGGDFDYWGQGTLVTVSS VL: DIQMTQSPSSLSASVGDRVTITCRASQDIRKDLGWYQQKPGKAPKRLIYAASSLHSGVPSRFSGSGSGTEFTLTISSLQPEDFATYYCLQHNSYPMYTFGQGTKLEIK",IC50 (nM) on HCT15/PRLR w/ Verapamil (CellTiter-Glo cytotoxicity),[3],0.196 nM
same,IC50 (nM) on HCT15/PRLR w/o Verapamil (CellTiter-Glo cytotoxicity),[3],3.31 nM
Anti-STEAP2-LP3 (conjugate) VH: QVQLVESGGGVVQPGRSLRLSCVASGFTISSYGMNWVRQAPGKGLEWVAVISYDGGNKYSVDSVKGRFTISRDNSKNTLYLQMNSLRAEDSAVYYCARGRYFDLWGRGTLVTVSS VL: DIQMTQSPSTLSASVGDRVTITCRASQSISSWLAWYQQKPGRAPNLLISKASSLKSGVPSRFSGSGSGTEFTLTVSSLQPDDFATYYCQQYYSYSYTFGQGTKLEIK,Average Final Tumor size mm^3 (mean ± SEM),[2],115 ± 6 mm^3
same,Average Tumor Growth Inhibition (%),[2],108%
Anti-STEAP2-LP4 (conjugate) VH: QVQLVESGGGVVQPGRSLRLSCVASGFTISSYGMNWVRQAPGKGLEWVAVISYDGGNKYSVDSVKGRFTISRDNSKNTLYLQMNSLRAEDSAVYYCARGRYFDLWGRGTLVTVSS VL: DIQMTQSPSTLSASVGDRVTITCRASQSISSWLAWYQQKPGRAPNLLISKASSLKSGVPSRFSGSGSGTEFTLTVSSLQPDDFATYYCQQYYSYSYTFGQGTKLEIK,Average Final Tumor size mm^3 (mean ± SEM),[2],258 ± 60 mm^3
same,Average Tumor Growth Inhibition (%),[2],97%
same,Final tumor volume (mm^3) at termination (mean ± SD),[4]; [6],179.9 ± 68.5 mm^3
same,Tumor growth (mm^3) from start of treatment (mean ± SD),[4]; [6],−20.0 ± 65.1 mm^3
same,Final tumor volume (mm^3) at termination (mean ± SD),[4]; [7],73.5 ± 53.4 mm^3
same,Tumor growth (mm^3) from start of treatment (mean ± SD),[4]; [7],−129.3 ± 67.7 mm^3
same,Final tumor volume (mm^3) at termination (mean ± SD),[4]; [8],6.0 ± 11.4 mm^3
same,Tumor growth (mm^3) from start of treatment (mean ± SD),[4]; [8],−196.5 ± 37.1 mm^3
same,Final tumor volume (mm^3) at termination (mean ± SD),[5]; [9],171.8 ± 176.1 mm^3
same,Tumor growth (mm^3) from start of treatment (mean ± SD),[5]; [9],−36.8 ± 167.0 mm^3
same,Final tumor volume (mm^3) at termination (mean ± SD),[5]; [10],46.0 ± 15.1 mm^3
same,Tumor growth (mm^3) from start of treatment (mean ± SD),[5]; [10],−164.0 ± 57.3 mm^3
same,Final tumor volume (mm^3) at termination (mean ± SD),[5]; [11],33.5 ± 13.6 mm^3
same,Tumor growth (mm^3) from start of treatment (mean ± SD),[5]; [11],−179.1 ± 51.3 mm^3
